From patent US20180321243A1 (UNIVERSITY OF SASKATCHEWAN, published 2018)

T1: recombinant human ADAM10 (Biomatik, #RPU140010) (human, UniProt O14672 214-672, limits assumed)
T1 construct: The source and catalogue number are printed for the phage display selections only; also called purified human ADAM10; Disintegrin and metalloproteinase domain-containing protein 10
T1 sequence (looked up): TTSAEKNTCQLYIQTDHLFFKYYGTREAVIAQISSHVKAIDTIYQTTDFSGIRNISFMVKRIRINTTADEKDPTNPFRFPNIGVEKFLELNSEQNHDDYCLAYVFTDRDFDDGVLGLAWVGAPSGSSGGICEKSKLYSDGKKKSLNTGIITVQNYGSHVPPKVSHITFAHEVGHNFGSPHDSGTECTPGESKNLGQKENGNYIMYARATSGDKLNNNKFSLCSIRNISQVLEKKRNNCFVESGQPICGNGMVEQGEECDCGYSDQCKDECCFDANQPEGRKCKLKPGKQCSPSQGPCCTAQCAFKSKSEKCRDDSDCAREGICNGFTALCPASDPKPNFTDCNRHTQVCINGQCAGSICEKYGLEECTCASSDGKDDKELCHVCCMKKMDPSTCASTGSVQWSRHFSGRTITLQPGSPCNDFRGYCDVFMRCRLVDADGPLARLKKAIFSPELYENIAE

B1: scFv-B9 (scFv)
scFv: SDIQMTQSPSSLSASVGDRVTITCRASQGISNYLAWYQQKPGKAPKLLIYAASSLQSGVPSRFSGSRSGTDFTLTISSLQPEDFATYYCQQLYHPPLTFGQGTKVEIKGGGSGGGSGGGSGGGSEVQLVESGGGLVQPGGSLRLSCAASGFTFSSYGMHWVRQAPGKGLEWVAVISYDGSNKYYADSVKGRFTISRDNSKNTLYLQMNSLRAEDTAVYYCARYSPYHYSHSVSYYYYGFDVWGQGTLVTVSS
notes: Synthetic human scFv, order VL (IgKV1-16 framework) - (G3S)4 linker - VH (IgHV3-30 framework); Expressed in E. coli BL-21 and purified by protein L chromatography
B2: biotin-scFv-B9 (scFv)
scFv: SDIQMTQSPSSLSASVGDRVTITCRASQGISNYLAWYQQKPGKAPKLLIYAASSLQSGVPSRFSGSRSGTDFTLTISSLQPEDFATYYCQQLYHPPLTFGQGTKVEIKGGGSGGGSGGGSGGGSEVQLVESGGGLVQPGGSLRLSCAASGFTFSSYGMHWVRQAPGKGLEWVAVISYDGSNKYYADSVKGRFTISRDNSKNTLYLQMNSLRAEDTAVYYCARYSPYHYSHSVSYYYYGFDVWGQGTLVTVSS
modifications: covalently labeled with biotin by N-hydroxysuccinamide amine coupling (EZ-link NHS biotin); labeled residues not stated
notes: held on streptavidin biosensors in the BLI experiments; also called biotin-labeled scFv-B9
B3: scFv-B2 (scFv)
scFv: SDIQMTQSPSSLSASVGDRVTITCRASQGISNYLAWYQQKPGKAPKLLIYAASSLQSGVPSRFSGSRSGTDFTLTISSLQPEDFATYYCQQSYYLPLTFGQGTKVEIKGGGSGGGSGGGSGGGSEVQLVESGGGLVQPGGSLRLSCAASGFTFSSYGMHWVRQAPGKGLEWVAVISYDGSNKYYADSVKGRFTISRDNSKNTLYLQMNSLRAEDTAVYYCARWPAHFSHSHSSYYYYGFDVWGQGTLVTVSS
notes: as for B1
B4: biotin-scFv-B2 (scFv)
scFv: SDIQMTQSPSSLSASVGDRVTITCRASQGISNYLAWYQQKPGKAPKLLIYAASSLQSGVPSRFSGSRSGTDFTLTISSLQPEDFATYYCQQSYYLPLTFGQGTKVEIKGGGSGGGSGGGSGGGSEVQLVESGGGLVQPGGSLRLSCAASGFTFSSYGMHWVRQAPGKGLEWVAVISYDGSNKYYADSVKGRFTISRDNSKNTLYLQMNSLRAEDTAVYYCARWPAHFSHSHSSYYYYGFDVWGQGTLVTVSS
modifications: covalently labeled with biotin by N-hydroxysuccinamide amine coupling (EZ-link NHS biotin); labeled residues not stated
notes: held on streptavidin biosensors in the BLI experiments; also called biotin-labeled scFv-B2
B5: scFv-B7 (scFv)
scFv: SDIQMTQSPSSLSASVGDRVTITCRASQGISNYLAWYQQKPGKAPKLLIYAASSLQSGVPSRFSGSRSGTDFTLTISSLQPEDFATYYCQQVSSWPLTFGQGTKVEIKGGGSGGGSGGGSGGGSEVQLVESGGGLVQPGGSLRLSCAASGFTFSSYGMHWVRQAPGKGLEWVAVISYDGSNKYYADSVKGRFTISRDNSKNTLYLQMNSLRAEDTAVYYCARYPPHGFDYWGQGTLVTVSS
notes: as for B1
B6: biotin-scFv-B7 (scFv)
scFv: SDIQMTQSPSSLSASVGDRVTITCRASQGISNYLAWYQQKPGKAPKLLIYAASSLQSGVPSRFSGSRSGTDFTLTISSLQPEDFATYYCQQVSSWPLTFGQGTKVEIKGGGSGGGSGGGSGGGSEVQLVESGGGLVQPGGSLRLSCAASGFTFSSYGMHWVRQAPGKGLEWVAVISYDGSNKYYADSVKGRFTISRDNSKNTLYLQMNSLRAEDTAVYYCARYPPHGFDYWGQGTLVTVSS
modifications: covalently labeled with biotin by N-hydroxysuccinamide amine coupling (EZ-link NHS biotin); labeled residues not stated
notes: held on streptavidin biosensors in the BLI experiments; also called biotin-labeled scFv-B7

What was measured:
[1] = target: T2, bovine serum albumin (BSA) (bovine, UniProt P02769 25-607); assay: phage ELISA, scFv displayed on M13 phage, BSA negative control, duplicate 2
T2 construct: Negative control / background protein in the phage ELISA
T2 sequence (P02769 25-607 limits assumed): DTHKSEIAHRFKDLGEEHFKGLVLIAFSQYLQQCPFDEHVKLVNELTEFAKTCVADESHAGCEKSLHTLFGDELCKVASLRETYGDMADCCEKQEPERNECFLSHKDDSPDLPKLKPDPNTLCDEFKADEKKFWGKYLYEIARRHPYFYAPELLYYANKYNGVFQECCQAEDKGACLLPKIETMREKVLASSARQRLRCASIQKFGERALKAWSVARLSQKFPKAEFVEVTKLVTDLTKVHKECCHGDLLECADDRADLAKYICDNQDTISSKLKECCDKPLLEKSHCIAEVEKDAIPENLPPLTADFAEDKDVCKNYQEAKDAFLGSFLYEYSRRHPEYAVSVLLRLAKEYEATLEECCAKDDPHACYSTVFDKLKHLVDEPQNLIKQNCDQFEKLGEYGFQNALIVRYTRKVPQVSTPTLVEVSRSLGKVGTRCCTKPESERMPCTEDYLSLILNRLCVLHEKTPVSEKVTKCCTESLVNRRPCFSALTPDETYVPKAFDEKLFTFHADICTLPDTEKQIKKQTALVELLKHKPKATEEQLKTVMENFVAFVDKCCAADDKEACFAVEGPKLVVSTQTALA
Procedure: (§1) A phage-based ELISA was performed as a semi-quantitative approach to initially validate scFv binding to ADAM10. ADAM10 was adsorbed to ELISA plates and purified phage displaying each of the scFv clones was tested for a binding signal compared to a negative control bovine serum albumin (BSA) protein.
(§2) Similar to the phage display screening methodology, ADAM10 was adsorbed to NUNC MaxiSorp Immunoplates and subsequently incubated with ˜10¹² purified phage displaying an scFv clone. An anti-phage-horseradish peroxidase secondary antibody was then used to generate binding signals for each clone in duplicate, which was measured by colour development at an optical density of 450 nm (O.D. 450 nm) using a tetramethylbenzidine substrate (ThermoScientific, #34028).

[2] = target: T1, recombinant human ADAM10 (Biomatik, …); assay: BLI (Octet RED384), unlabeled scFv coupled to AR2G biosensors, ADAM10 at 500 and 166 nM, global fit
Procedure: (§3) BLI sensorgrams for scFv-B2 (A), scFv-B7 (B), and scFv-B9 (C) show real-time binding curves in nanometers of optical thickness versus time (sec). […] A global best fit (solid red line) for each curve was calculated by ForteBio Data Anaylsis 7.1 software and used to determine the kinetic parameters in Table 5.
(§4) Biolayer interferometry was performed with an Octet RED384 instrument (ForteBio). The initial kinetics with unlabeled scFv was performed through coupling to AR2G biosensors per manufacturer instructions (ForteBio). These biosensors were then dipped into ADAM10 (500 nM and 166 nM) to generate the association curves, after which the sensors were moved into buffer alone to generate the corresponding dissociation curves. ForteBio Data Analysis 7.0 software was used for global curve fitting to generate the kinetic data. The kinetic analysis for biotin-conjugated scFvs was performed similarly, except that streptavidin biosensors (ForteBio) were used for immobilization, along with three ADAM10 concentrations (1000 nM, 500 nM, 166 nM). An equal loading (i.e. optical thickness) of the biosensors was performed in both kinetic experiments.

[3] = target: T1, recombinant human ADAM10 (Biomatik, …); assay: phage ELISA, ADAM10 signal over BSA signal
Procedure: as §1, §2

[4] = target: T2, bovine serum albumin (BSA); assay: phage ELISA, scFv displayed on M13 phage, BSA negative control, duplicate 1
Procedure: as §1, §2

[5] = target: T1, recombinant human ADAM10 (Biomatik, …); assay: BLI (Octet RED384), biotin-labeled scFv on streptavidin biosensors, ADAM10 at 1000, 500 and 166 nM, global fit
Procedure: as §3, with “biotin-scFv-B2” for “scFv-B2”, “biotin-scFv-B7” for “scFv-B7”, “biotin-scFv-B9” for “scFv-B9”, “6.” for “5.”
as §4

[6] = target: T1, recombinant human ADAM10 (Biomatik, …); assay: phage ELISA, ADAM10 signal over BSA signal; underrepresentation because OD was above the detectable limit
Procedure: as §1, §2

| Binder | Absorbance at O.D. 450 nm [1] [OD 450 nm] | Kd [2] [nM] | koff [2] [s⁻¹] | kon [2] [M⁻¹ s⁻¹] | Average fold signal over background [3] [fold] | Absorbance at O.D. 450 nm [4] [OD 450 nm] | Kd [5] [nM] | koff [5] [s⁻¹] | kon [5] [M⁻¹ s⁻¹] | Average fold signal over background [6] [fold] |
| --- | --- | --- | --- | --- | --- | --- | --- | --- | --- | --- |
| B1 | 0.082 | 9.32 | 0.000115 | 12400 | 42.1 | 0.075 |  |  |  |  |
| B2 |  |  |  |  |  |  | 23.1 | 0.00117 | 50800 |  |
| B3 | 0.079 | 14.6 | 0.000187 | 12800 |  | 0.096 |  |  |  | > 45.7 |
| B4 |  |  |  |  |  |  | 22 | 0.00103 | 46800 |  |
| B5 | 0.086 | 7.52 | 9.3e-05 | 12400 | 37 | 0.084 |  |  |  |  |
| B6 |  |  |  |  |  |  | 21 | 0.00109 | 51900 |  |
